Measurements reported in patent US7150969B2, “Alternatively spliced isoform of acetyl-CoA carboxylase 2 (ACC2)” (Rosetta Inpharmatics LLC, priority 2004, dated 2006).

Test system: CC(=O)SCCNC(=O)CCNC(=O)[C@H](O)C(C)(C)COP(=O)(O)OP(=O)(O)OC[C@H]1O[C@@H](n2cnc3c(N)ncnc32)[C@H](O)[C@@H]1OP(=O)(O)O
Experiment: purified protein, by the assay type
Conditions: other: 37° C., 40 minutes, pH 7.5, 20 mM citrate

ACC1 (Homo sapiens)
Km: 51 µM

ACC2 (Homo sapiens)
Km: 108 µM
